Measured values: patent publication US20250163127A1

Tests used:
PD-1-Fc (human) = PD-1-Fc (human) (UniProt Q15116); assay: ForteBio Octet, PD-1 on anti-human capture sensor, 100 nM
human PD-1 (human) = human PD-1 (human) (UniProt Q15116)
CTLA-4 (human) [1] = assay: flow cytometry, CHO cells expressing CTLA4
PD-L1 (human) [2] = assay: flow cytometry, CHO cells expressing PD-L1
CD28 (human) [3] = molecular target: CD28 (human) (UniProt P10747); assay: flow cytometry, Jurkat cells (CD28)
PD-L1 (human) [4] = assay: flow cytometry, cells expressing PD-L1
CD28 (human) [5] = molecular target: CD28 (human) (UniProt P10747); assay: flow cytometry, cells expressing CD28
CTLA-4 (human) [6] = assay: flow cytometry, cells expressing CTLA-4

Sequence of PD-L1 (human) (chain, as listed by the source): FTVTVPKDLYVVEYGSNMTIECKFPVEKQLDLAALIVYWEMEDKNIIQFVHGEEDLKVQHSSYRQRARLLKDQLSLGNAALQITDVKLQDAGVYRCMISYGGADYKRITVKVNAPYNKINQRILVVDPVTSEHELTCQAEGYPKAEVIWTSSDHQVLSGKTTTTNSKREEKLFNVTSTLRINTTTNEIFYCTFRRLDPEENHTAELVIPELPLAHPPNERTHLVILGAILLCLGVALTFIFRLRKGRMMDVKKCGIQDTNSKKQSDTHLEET
Sequence of PD-1-Fc (human) (Q15116 25-167 limits assumed): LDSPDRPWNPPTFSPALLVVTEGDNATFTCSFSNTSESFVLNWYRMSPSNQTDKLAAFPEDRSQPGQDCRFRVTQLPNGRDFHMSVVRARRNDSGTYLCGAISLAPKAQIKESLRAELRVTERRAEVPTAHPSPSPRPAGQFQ
Sequence of human PD-1 (human) (Q15116 25-288): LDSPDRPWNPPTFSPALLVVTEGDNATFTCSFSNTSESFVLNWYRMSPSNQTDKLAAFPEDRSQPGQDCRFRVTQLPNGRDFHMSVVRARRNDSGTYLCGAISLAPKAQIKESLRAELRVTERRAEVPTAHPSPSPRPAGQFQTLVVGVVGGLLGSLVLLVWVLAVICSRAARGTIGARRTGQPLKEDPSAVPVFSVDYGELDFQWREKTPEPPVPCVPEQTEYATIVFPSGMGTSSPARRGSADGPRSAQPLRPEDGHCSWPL
Sequence of CTLA-4 (human) (chain, as listed by the source): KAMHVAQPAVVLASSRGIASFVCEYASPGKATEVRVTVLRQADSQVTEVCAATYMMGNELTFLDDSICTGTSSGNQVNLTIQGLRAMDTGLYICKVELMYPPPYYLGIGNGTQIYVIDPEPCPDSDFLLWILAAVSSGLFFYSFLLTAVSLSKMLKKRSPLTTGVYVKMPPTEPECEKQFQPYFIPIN

Binder	Fortebio Response Units (Response Units) (PD-1-Fc (human))	IFN gamma levels pg/mL (MLR) (human PD-1 (human)) [pg/mL]	Fold change to WT CD80 (CTLA-4 (human) [1]) [fold]	MFI at 33.3 nM (CTLA-4 (human) [1]) [MFI]	Fold change to WT CD80 (PD-L1 (human) [2]) [fold]	MFI at 33.3 nM (PD-L1 (human) [2]) [MFI]	Fold change to WT CD80 (CD28 (human) [3]) [fold]	MFI at 33.3 nM (CD28 (human) [3]) [MFI]	also measured
variant PD-L2 IgV H15Q Fc fusion (Fc fusion) LFTVTVPKELYIIEQGSNVTLECNFDTGSHVNLGAITASLQKVENDTSPHRERATLLEEQLPLGKASFHIPQVQVRDEGQYQCIIIYGVAWDYKYLTLKVKA	0.007	1820	–	–	–	–	–	–	–
variant PD-L2 IgV N24D Fc fusion (Fc fusion) LFTVTVPKELYIIEHGSNVTLECDFDTGSHVNLGAITASLQKVENDTSPHRERATLLEEQLPLGKASFHIPQVQVRDEGQYQCIIIYGVAWDYKYLTLKVKA	-0.039	1980	–	–	–	–	–	–	–
variant PD-L2 IgV E44D Fc fusion (Fc fusion) LFTVTVPKELYIIEHGSNVTLECNFDTGSHVNLGAITASLQKVDNDTSPHRERATLLEEQLPLGKASFHIPQVQVRDEGQYQCIIIYGVAWDYKYLTLKVKA	-0.006	1500	–	–	–	–	–	–	–
variant PD-L2 IgV V89D Fc fusion (Fc fusion) LFTVTVPKELYIIEHGSNVTLECNFDTGSHVNLGAITASLQKVENDTSPHRERATLLEEQLPLGKASFHIPQVQVRDEGQYQCIIIYGDAWDYKYLTLKVKA	0.005	1170	–	–	–	–	–	–	–
variant PD-L2 IgV S67L/I85F Fc fusion (Fc fusion) LFTVTVPKELYIIEHGSNVTLECNFDTGSHVNLGAITASLQKVENDTSPHRERATLLEEQLPLGKALFHIPQVQVRDEGQYQCIFIYGVAWDYKYLTLKVKA	-0.005	1280	–	–	–	–	–	–	–
variant PD-L2 IgV H15Q/K65R Fc fusion (Fc fusion) LFTVTVPKELYIIEQGSNVTLECNFDTGSHVNLGAITASLQKVENDTSPHRERATLLEEQLPLGRASFHIPQVQVRDEGQYQCIIIYGVAWDYKYLTLKVKA	-0.001	1510	–	–	–	–	–	–	–
variant PD-L2 IgV H15Q/Q82R/V89D Fc fusion (Fc fusion) LFTVTVPKELYIIEQGSNVTLECNFDTGSHVNLGAITASLQKVENDTSPHRERATLLEEQLPLGKASFHIPQVQVRDEGQYRCIIIYGDAWDYKYLTLKVKA	1.2	1080	–	–	–	–	–	–	–
variant PD-L2 IgV I13V/E44D/Q82R/V89D Fc fusion (Fc fusion) LFTVTVPKELYIVEHGSNVTLECNFDTGSHVNLGAITASLQKVDNDTSPHRERATLLEEQLPLGKASFHIPQVQVRDEGQYRCIIIYGDAWDYKYLTLKVKA	1.28	–	–	–	–	–	–	–	–
variant PD-L2 IgV H15Q/S67L/R76G/I85F Fc fusion (Fc fusion) LFTVTVPKELYIIEQGSNVTLECNFDTGSHVNLGAITASLQKVENDTSPHRERATLLEEQLPLGKALFHIPQVQVGDEGQYQCIFIYGVAWDYKYLTLKVKA	0.025	1320	–	–	–	–	–	–	–
variant PD-L2 IgV H15Q/T47A/Q72H/R76G/I86T Fc fusion (Fc fusion) LFTVTVPKELYIIEQGSNVTLECNFDTGSHVNLGAITASLQKVENDASPHRERATLLEEQLPLGKASFHIPHVQVGDEGQYQCIITYGVAWDYKYLTLKVKA	0.512	1600	–	–	–	–	–	–	–
variant PD-L2 IgV G28V/Q72H/R76G/I86T Fc fusion (Fc fusion) LFTVTVPKELYIIEHGSNVTLECNFDTVSHVNLGAITASLQKVENDTSPHRERATLLEEQLPLGKASFHIPHVQVGDEGQYQCIITYGVAWDYKYLTLKVKA	0.003	1780	–	–	–	–	–	–	–
variant PD-L2 IgV H15Q/V89D Fc fusion (Fc fusion) LFTVTVPKELYIIEQGSNVTLECNFDTGSHVNLGAITASLQKVENDTSPHRERATLLEEQLPLGKASFHIPQVQVRDEGQYQCIIIYGDAWDYKYLTLKVKA	0.31	1500	–	–	–	–	–	–	–
variant PD-L2 IgV H15Q/T47A Fc fusion (Fc fusion) LFTVTVPKELYIIEQGSNVTLECNFDTGSHVNLGAITASLQKVENDASPHRERATLLEEQLPLGKASFHIPQVQVRDEGQYQCIIIYGVAWDYKYLTLKVKA	0.016	1640	–	–	–	–	–	–	–
variant CD80 E35D/L85Q/K93T/E95V/L97Q (Fc fusion) VIHVTKEVKEVATLSCGHNVSVEELAQTRIYWQKDKKMVLTMMSGDMNIWPEYKNRTIFDITNNLSIVILALRPSDEGTYECVVQKYEKDAFTRVHQAEVT	–	–	1.57	246000	1.67	19900	0.02	400	–
variant CD80 E35D/M47V/N48K/V68M/K89N (Fc fusion) VIHVTKEVKEVATLSCGHNVSVEELAQTRIYWQKDKKMVLTMMSGDVKIWPEYKNRTIFDITNNLSIMILALRPSDEGTYECVVLKYENDAFKREHLAEVT	–	–	0.01	807	7.56	89800	0.65	11700	–
variant CD80 Q33L/E35D/M47I/N48D/A71G (Fc fusion) VIHVTKEVKEVATLSCGHNVSVEELAQTRIYWLKDKKMVLTMMSGDIDIWPEYKNRTIFDITNNLSIVILGLRPSDEGTYECVVLKYEKDAFKREHLAEVT	–	–	0.74	117000	2.62	31200	0.04	644	–
variant CD80 R29H/E35D/M43V/M47I/I49V (Fc fusion) VIHVTKEVKEVATLSCGHNVSVEELAQTHIYWQKDKKMVLTMVSGDINVWPEYKNRTIFDITNNLSIVILALRPSDEGTYECVVLKYEKDAFKREHLAEVT	–	–	0.03	4690	0.13	1590	0.02	336	–
variant CD80 Q27H/E35D/M47I/L85Q/D90G (Fc fusion) VIHVTKEVKEVATLSCGHNVSVEELAHTRIYWQKDKKMVLTMMSGDINIWPEYKNRTIFDITNNLSIVILALRPSDEGTYECVVQKYEKGAFKREHLAEVT	–	–	1.64	258000	2.58	30700	0.19	3510	–
variant CD80 E35D/M47I/L85Q/D90G (Fc fusion) VIHVTKEVKEVATLSCGHNVSVEELAQTRIYWQKDKKMVLTMMSGDINIWPEYKNRTIFDITNNLSIVILALRPSDEGTYECVVQKYEKGAFKREHLAEVT	–	–	1.57	248000	3.01	35700	0.23	4100	–
variant CD80 E35D/M47I/T62S/L85Q (Fc fusion) VIHVTKEVKEVATLSCGHNVSVEELAQTRIYWQKDKKMVLTMMSGDINIWPEYKNRTIFDISNNLSIVILALRPSDEGTYECVVQKYEKDAFKREHLAEVT	–	–	1.91	301000	3.79	45000	0.1	1760	–
variant CD80 V22A/E35D/M47I/Y87N (Fc fusion) VIHVTKEVKEVATLSCGHNVSAEELAQTRIYWQKDKKMVLTMMSGDINIWPEYKNRTIFDITNNLSIVILALRPSDEGTYECVVLKNEKDAFKREHLAEVT	–	–	–	246000	–	–	–	15300	–
variant CD80 E35D/T41S/M43V/M47I/L70M/A71G (Fc fusion) VIHVTKEVKEVATLSCGHNVSVEELAQTRIYWQKDKKMVLSMVSGDINIWPEYKNRTIFDITNNLSIVIMGLRPSDEGTYECVVLKYEKDAFKREHLAEVT	–	–	1.59	249000	1.09	13000	0.15	2700	–
variant CD80 E35D/D46E/M47V/N63D/L85Q (Fc fusion) VIHVTKEVKEVATLSCGHNVSVEELAQTRIYWQKDKKMVLTMMSGEVNIWPEYKNRTIFDITDNLSIVILALRPSDEGTYECVVQKYEKDAFKREHLAEVT	–	–	1.74	274000	5.88	69800	0.07	1330	–
variant CD80 E35D/D46E/M47V/V68M/D90G/K93E (Fc fusion) VIHVTKEVKEVATLSCGHNVSVEELAQTRIYWQKDKKMVLTMMSGEVNIWPEYKNRTIFDITNNLSIMILALRPSDEGTYECVVLKYEKGAFEREHLAEVT	–	–	1.74	273000	6.06	71900	1.5	27100	–
variant CD80 E35D/M47L/A71G/L85M/F92Y (Fc fusion) VIHVTKEVKEVATLSCGHNVSVEELAQTRIYWQKDKKMVLTMMSGDLNIWPEYKNRTIFDITNNLSIVILGLRPSDEGTYECVVMKYEKDAYKREHLAEVT	–	–	1.37	216000	3.93	46700	0.14	2460	–
variant CD80 K36G/K37Q/M38I/L40M (Fc fusion) VIHVTKEVKEVATLSCGHNVSVEELAQTRIYWQKEGQIVMTMMSGDMNIWPEYKNRTIFDITNNLSIVILALRPSDEGTYECVVLKYEKDAFKREHLAEVTLSVKADFPTPSISDFEIPTSNIRRIICSTSGGFPEPHLSWLENGEELNAINTTVSQDPETELYAVSSKLDFNMTTNHSFMCLIKYGHLRVNQTFNWNTTKQEHFPDN	–	–	–	–	–	–	–	–	MFI (PD-L1 (human) [4]): 959 MFI; parental ratio (PD-L1 (human) [4]): 0.05; MFI (CD28 (human) [5]): 1170 MFI; parental ratio (CD28 (human) [5]): 0.09; MFI (CTLA-4 (human) [6]): 1400 MFI; parental ratio (CTLA-4 (human) [6]): 0.03
